Experimental data from patent US20150050301A1, “Contiguous Overlapping Peptides for Treatment of House Dust Mites Allergy” (ANERGIS S.A., priority 2013, published 2015).
Like-named read-outs stand apart in the source and are kept apart here.

How the values were obtained:
[1] = system: IgE of sera of house dust mite allergic patients binding to nDer p 2; experiment: Competition ELISA on Der p 2 coated plates; design: species or system human; details: for IgE binding in competition ELISA (Der p 2): sera from patients allergic to house dust mites, COPs 10^−5 to 10^−10 M
Protocol: (§1) Purified Der p 1 or Der p 2 at 1.0 μg/ml were coated overnight on 96-well Nunc Maxisorp® immunoplates (Thermo Fisher Scientific Inc., Wohlen, Switzerland). After blocking with 1% BSA, either twenty-fold, thirty-fold or forty-fold up to 200-fold dilutions of patient serum were added depending on specific IgE content. […] Sera of allergic patients were obtained from US and Europe (PlasmaLab International, Everett, Wash., USA and Biomnis, Lyon, France) respectively) selected for positive CAP for D. pteronyssinus and clear signal over background and used to test for competition with the peptides. Serial dilutions of each set of COPs, namely for Der p 1 Set A, B, C or D and for Der p 2 mixes D, E or F at concentrations ranging from 10^−5 to 10^−10 M were pre-incubated with selected serums for 15 min. on ice.

[2] = Solubility Characteristics of COPs; format: physicochemical
Protocol: All COPs were synthesized by solid phase fmoc chemistry at research scale to allow determination of IgE binding. […] Peptides were resuspended either in water at 2 mg/ml or at 10 to 20 mg per ml in DMSO (see Table 1) and frozen in aliquots.

[3] = system: IgE; experiment: Direct ELISA of Der p 2 COPs; format: binding, human
[4] = system: RBL-703/21 cells transfected with human Fc epsilon RI receptor, sensitized with sera from patients with house dust mite allergy; experiment: RBL degranulation; format: cell-based; details: RBL cells pre-loaded with 18 human serums; AllerDM up to 10^−5M
Protocol: Degranulation assay was performed as described in [37]. RBL-703/21 cells transfected with human Fc epsilon RI receptor were plated in 96-well tissue culture plates (10^5 cells/well) overnight. Passive sensitization of RBL-703/21 cells was carried out with sera from patients with house dust mite allergy at 1:20 overnight. Unbound antibodies were removed by washing the cell layer twice in Hanks' balanced salt solution (Gibco, Life technologies) the next day. Degranulation of RBL cells was induced for 1 h at 37° C. by adding nDer p1, nDer p 2 or individual COPs and mixes at indicated concentrations diluted in Tyrode's buffer (130 mM NaCl, 5 mM KCl, 1.4 mM CaCl2, 1 mM MgCl2, 5.6 mM glucose, 10 mM HEPES pH7.4, 0.1% BSA). β-hexosaminidase activity was analyzed by incubating 30 μl of cell supernatant with 50 μl of 1.3 mg/ml 4-Nitrophenyl N-acetyl-β-D-glucosaminide (Sigma) in citrate buffer (0.1M, pH 4.5) for 1 h at 37° C. The reaction was stopped by addition of 100 μl glycine buffer (0.2M glycine, 0.2M NaCl, pH 10.7) and optical densities (OD) were measured at 405 nm.

[5] = system: IgE of sera of house dust mite allergic patients binding to nDer p 1; experiment: Competition ELISA on Der p 1 coated plates; design: species or system human; details: for IgE binding in competition ELISA (Der p 1): sera from patients allergic to house dust mites, COPs 10^−5 to 10^−10 M
Protocol: as §1

In the case of “DQVDVKDCANHEIKKVLVPGCHGSEPCIIHRGKPFQLEAVFEANQNTKTAKIEIKASIDGLEVDVPGIDPNA [AllerDM2.1]”, the “IgE binding in competition ELISA (Der p 2)” value [1] is reported as “did not bind IgE” and the Conc. ([2]; pH 5) is reported as 1000 µg/mL.

In the case of “SEPCIIHRGKPFQLEALFEANQNSKTAKIEIKASIDGLEVDVPGIDPNACHYMKCPLVKGQQYDIKYTWNVPKIA [AllerDM2.7]”, the “IgE binding in competition ELISA (Der p 2)” value [1] is reported as “residual IgE binding” and the Conc. [2] is reported as 3500 µg/mL.

In the case of “SIDGLEVDVPGIDPNACHYMKCPLVKGQQYDIKYTWNVPKIAPKSENVVVTVKVMGDDGVLACAIATHAKIRD [AllerDM2.2]”, the “effect of denaturing salts on IgE binding (Der p 2 competition ELISA)” value ([1]; denaturing salts incl. guanidinium chloride or urea, 30 min pre-incubation with 1M guanidinium chloride) is reported as “strongly diminished IgE binding”, the “IgE binding in direct ELISA” value [3] is reported as “found to bind IgE” and the Conc. [2] is reported as 1700 µg/mL.

B1: Der p 2: purified natural Der p 2 house dust mite major allergen from Indoor Biotechnologies Ltd (protein)
chain: DQVDVKDCANHEIKKVLVPGCHGSEPCIIHRGKPFQLEALFEANQNSKTAKIEIKASIDGLEVDVPGIDPNACHYMKCPLVKGQQYDIKYTWNVPKIAPKSENVVVTVKVLGDNGVLACAIATHAKIRD
For B1, the “basophil degranulation of RBL cells, serum panel” value [4] was “able to induce degranulation” and the “concentration range of competition (Der p 2 control)” value ([1]; panel of 21 sera) was 10^−7 to 10^−9 M.

B2: TNACSINGNAPAEIDLRQMRTVTPIRMQGGCGSCWAFSGVAATESAYLAYRNQSLDLAEQELVDCA (peptide, listed as Dermatophagoides pteronyssinus)
chain: TNACSINGNAPAEIDLRQMRTVTPIRMQGGCGSCWAFSGVAATESAYLAYRNQSLDLAEQELVDCA
notes: Der p 1 contiguous overlapping peptide, 66AA
With B2 the “IgE binding in competition ELISA (Der p 1)” value (“IgE binding … (Der p 1)” below) [5] was “no detectable IgE binding”, the “solubility remark” value ([2]; 1.2: when added to Citrate buffer or PBS at 2 × 10^−5M) was “NaOH) Difficult pH8” and the Conc. ([2]; H2O, pH adjusted with HCl and NaOH) was 1000 µg/mL.

B3: TNACSINGNAPAEIDLRQMRTVTPIRMQGGCGSCWAFSGVAATESAYLAYRNQSLDLAEQELVDCASQHG (peptide, listed as Dermatophagoides pteronyssinus)
chain: TNACSINGNAPAEIDLRQMRTVTPIRMQGGCGSCWAFSGVAATESAYLAYRNQSLDLAEQELVDCASQHG
notes: Der p 1 contiguous overlapping peptide, 70AA, T99 to G168
For B3, the “IgE binding … (Der p 1)” value [5] was “no detectable IgE binding” and the Conc. ([2]; Solvent 7M guanidinium chloride) was 30000 µg/mL.

B4: Der p 1: purified natural Der p 1 house dust mite major allergen from Indoor Biotechnologies Ltd (protein)
chain: TNACSINGNAPAEIDLRQMRTVTPIRMQGGCGSCWAFSGVAATESAYLAYRNQSLDLAEQELVDCASQHGCHGDTIPRGIEYIQHNGVVQESYYRYVAREQSCRRPNAQRFGISNYCQIYPPNVNKIREALAQTHSAIAVIIGIKDLDAFRHYDGRTIIQRDNGYQPNYHAVNIVGYSNAQGVDYWIVRNSWDTNWGDNGYGYFAANIDLMMIEEYPYVVIL
With B4 the “concentration range of competition (Der p 1 control)” value ([5]; panel of 21 sera) was 10^−7 to 10^−9 M and the “basophil degranulation of RBL cells, serum panel” value [4] was “able to induce degranulation”.

B5: AIAVIIGIKDLDAFRHYDGRTIIQRDNGYQPNYHAVNIVGYSNAQGVDYWIVRNSWDTNWGDNGYGYFAANIDLMMIEEYPYVVIL (peptide)
peptide: AIAVIIGIKDLDAFRHYDGRTIIQRDNGYQPNYHAVNIVGYSNAQGVDYWIVRNSWDTNWGDNGYGYFAANIDLMMIEEYPYVVIL
For B5, the “IgE binding … (Der p 1)” value [5] was “Residual IgE binding was observed” and the Conc. [2] was 500 µg/mL.
